Experimental data as given in the Human Domainome abundance scans (Beltran et al. 2025).

B1: Ubiquitin-protein ligase residues 30 to 86; numbered along this chain, Q05086 (parent)
chain: KHLIERYYHQLTEGCGNEACTNEFCASCPTFLRMDNNAAAIKALELYKINAKLCDPH

Variants of: B1
Assay: abundance fitness (aPCA) (normalised: wild type 0, dead -1); higher = more abundant; growth selection in yeast, the domain comes from the species named
Details: Homo sapiens

Abundance fitness of substitutions, site by site:
Y47: R 0.05 | V 0.06 | G 0.008 | L 0.027 | P -0.05 | C 0.031 | W -0.085 | H 0.088 | T 0.073 | A 0.088 | N 0.012 | F 0.108 | Q -0.03 | I -0.094 | S 0.084 | K 0.031
A38: R 0.005 | T -0.07 | E -0.108 | L 0.025 | M -0.164 | W -0.142 | V 0.029 | H -0.19 | P -0.006 | N -0.213 | Q -0.106 | D -0.295 | K -0.044 | C -0.083 | Y 0.08 | I -0.166 | G -0.191
N50: V -0.158 | K -0.095 | Q -0.11 | E -0.041 | T -0.006 | L -0.143 | C -0.057 | I -0.356 | W -0.31 | A 0.004 | H -0.05 | D 0.034 | S 0.023 | P -0.041 | Y -0.018 | G -0.019 | R -0.033
A40: I -0.242 | L -0.083 | Y -0.192 | D 0.025 | W -0.04 | P -0.171 | Q -0.015 | S 0.037 | T 0.08 | F -0.194 | K -0.023 | G 0.046 | C 0.067 | N 0.041 | E 0.159
K48: I -0.607 | M -0.424 | T -0.122 | H -0.111 | R -0.072 | Q -0.109 | N 0.012 | L -0.388 | Y -0.438 | A -0.17 | D 0.009 | G -0.188 | C -0.427 | E -0.058 | W -0.357 | F -0.682 | P -0.222 | S -0.161 | V -0.455
N37: T -0.015 | F -0.542 | Q -0.016 | C -0.17 | W -0.454 | M -0.186 | K -0.107 | S -0.072 | R -0.086 | P -0.107 | A 0.018 | H -0.075 | D 0.044
L32: F -0.239 | N 0.202 | I -0.036 | V 0.009 | C -0.082 | A 0.006 | T 0.098 | W -0.193 | R -0.033 | S -0.053 | P 0.148 | H -0.093 | K 0.081 | Y -0.233 | D -0.049 | Q 0.043 | G -0.034
L46: F -0.063 | Q -0.17 | G -0.178 | M -0.13 | N -0.341 | S -0.095 | K -0.754 | V -0.06 | E -0.514 | D -0.389 | Y -0.312 | C -0.029 | T -0.278 | H 0.035 | P -0.528 | I -0.056 | W -0.401 | A -0.107
M34: R -0.102 | S -0.042 | L -0.002 | G -0.117 | Y -0.035 | W -0.183 | H -0.095 | Q -0.074 | T -0.129 | F -0.061 | A -0.029 | K -0.23 | V -0.023 | I 0.054 | E -0.053 | P -0.042 | N -0.279
A51: I -0.45 | P -0.35 | V -0.082 | M -0.189 | E -0.102 | L -0.463 | W -0.029 | T -0.02 | Y -0.195 | D -0.052 | N -0.152 | G -0.075 | Q -0.289 | K -0.093 | S -0.012 | F -0.053 | C -0.151 | H -0.147
N36: K 0.013 | E 0.007 | A -0.042 | Y -0.308 | L -0.005 | F -0.046 | C -0.019 | V -0.03 | S 0.044 | Q -0.005 | M -0.181 | R 0.055 | I -0.11 | W -0.239 | T -0.027 | H -0.152 | G -0.036
L44: C -0.032 | N 0.013 | G 0.057 | Y 0.131 | R 0.074 | D 0.042 | A 0.057 | V 0.017 | K 0.108 | S 0.051 | H -0.096 | F -0.122 | W -0.16 | P 0.059 | T 0.118 | I 0.173
I49: L -0.043 | T 0.003
E45: G -0.069 | N 0.11 | Q -0.129 | S -0.067 | A -0.087 | T -0.288 | C -0.276 | W -0.372 | P -0.873 | F -0.221 | M -0.181 | H -0.184 | R -0.064 | K -0.129 | D -0.199 | Y -0.217
R33: A -0.099 | D -0.245 | V -0.013 | M -0.145 | F -0.415 | C -0.152 | T -0.025 | K 0.033 | Y -0.19 | G 0.014 | S -0.041 | W -0.294 | H -0.109 | E -0.011 | P -0.017 | L -0.148 | I -0.1 | N -0.109
A43: V -0.221 | S 0.027 | D -0.856 | C -0.098 | G -0.156 | W -0.989 | N -0.768 | L -0.826 | F -1.06 | H -0.987 | I -0.92 | M -0.321 | E -0.894 | R -0.717 | P -0.467 | K -0.242
L53: C -0.14 | A -0.098 | E -0.068 | D -0.353 | G -0.199 | F -0.048
A39: I -0.085 | Y -0.239 | W -0.375 | G -0.084 | N -0.242 | Q -0.317 | R -0.053 | M -0.065 | L -0.096 | E -0.393 | H -0.228 | T -0.065 | D -0.605 | F -0.249 | V -0.084 | K -0.175
K52: R -0.052 | W -0.437 | S -0.31
F31: Y -0.06 | V -0.038 | W -0.188 | T -0.023
D35: P -0.135 | M -0.058 | K -0.199 | A -0.067 | S -0.022 | F -0.265 | V -0.187 | R -0.095 | C -0.133 | L -0.091 | T -0.112 | G -0.039 | Y -0.333 | E -0.026 | N -0.094 | I -0.177 | H -0.213 | Q -0.084 | W -0.308
K42: H -0.109 | R -0.023 | V -0.392 | L -0.211 | W -0.293 | I -0.498 | E -0.109 | M -0.269 | Q -0.085 | P -0.735 | A -0.184 | N -0.198 | S -0.178 | T -0.157 | F -0.408 | G -0.343 | C -0.282
I41: S 0.035 | Q 0.075 | D 0.024 | C -0.028 | Y -0.123 | P -0.069 | E 0.029 | H 0.064 | W -0.239 | R 0 | T -0.013 | L -0.072 | A 0.012 | M -0.053 | G 0.001 | K 0.08 | V 0.01
